Numbering of substitutions follows the chain as printed. In names and notes the source's numbering stands.
T1: human MIC-1 receptor (hGFRAL, GDNF family receptor alpha like), full length (human, UniProt Q6UXV0 19-394)
T1 sequence (looked up): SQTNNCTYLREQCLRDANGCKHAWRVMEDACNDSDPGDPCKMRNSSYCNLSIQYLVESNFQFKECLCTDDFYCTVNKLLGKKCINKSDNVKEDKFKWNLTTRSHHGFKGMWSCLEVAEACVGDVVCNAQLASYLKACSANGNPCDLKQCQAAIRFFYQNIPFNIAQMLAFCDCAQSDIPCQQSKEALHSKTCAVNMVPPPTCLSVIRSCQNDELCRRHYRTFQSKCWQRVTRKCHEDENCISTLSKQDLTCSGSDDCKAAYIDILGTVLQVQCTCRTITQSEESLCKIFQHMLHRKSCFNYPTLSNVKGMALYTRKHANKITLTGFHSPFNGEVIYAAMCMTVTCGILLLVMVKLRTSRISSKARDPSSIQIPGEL

B1: (AEE)2AES-MIC-1-Δ1-3 (ligand)
chain: AEEAEEAESGDHCPLGPGRCCRLHTVRASLEDLGWADWVLSPREVQVTMCIGACPSQFRAANMHAQIKTSLHRLKPDTVPAPCCVPASYNPMVLIQKTDTGVSLQTYDDLLAKDCHCI
B2: (GEPS)5-MIC-1(SEQ ID NO: 1) (ligand)
chain: GEPSGEPSGEPSGEPSGEPSARNGDHCPLGPGRCCRLHTVRASLEDLGWADWVLSPREVQVTMCIGACPSQFRAANMHAQIKTSLHRLKPDTVPAPCCVPASYNPMVLIQKTDTGVSLQTYDDLLAKDCHCI
B3: AEEAES-MIC-1-Δ1-3 (ligand)
chain: AEEAESGDHCPLGPGRCCRLHTVRASLEDLGWADWVLSPREVQVTMCIGACPSQFRAANMHAQIKTSLHRLKPDTVPAPCCVPASYNPMVLIQKTDTGVSLQTYDDLLAKDCHCI
B4: MIC-1(R2A,N3E,H18E) (ligand)
chain: AAEGDHCPLGPGRCCRLETVRASLEDLGWADWVLSPREVQVTMCIGACPSQFRAANMHAQIKTSLHRLKPDTVPAPCCVPASYNPMVLIQKTDTGVSLQTYDDLLAKDCHCI
B5: MIC-1(R2A,N3E,L105E) (ligand)
chain: B4 chain with E18H, L105E
B6: MIC-1(R2A,N3E,A47E) (ligand)
chain: B4 chain with E18H, A47E
B7: MIC-1(R2A,N3E,K69E) (ligand)
chain: B4 chain with E18H, K69E
B8: MIC-1(R2A,N3E,P11E) (ligand)
chain: B4 chain with P11E, E18H
B9: MIC-1(R2A,N3E,A30E) (ligand)
chain: B4 chain with E18H, A30E
B10: MIC-1(R2A,N3E,R21E) (ligand)
chain: B4 chain with E18H, R21E
B11: MIC-1(R2A,N3E,P85E) (ligand)
chain: B4 chain with E18H, P85E
B12: MIC-1(R2A, N3E) (ligand)
chain: B4 chain with E18H
B13: AES-MIC-1-Δ1-3 (ligand)
chain: B4 chain with A2E, E3S, E18H
B14: MIC-1(R2A,N3E,M57E) (ligand)
chain: B4 chain with E18H, M57E
B15: MIC-1(R2A,N3E,R53E) (ligand)
chain: B4 chain with E18H, R53E
B16: MIC-1(R2A,N3E,L68E) (ligand)
chain: B4 chain with E18H, L68E
B17: MIC-1(R2A,N3E,K107E) (ligand)
chain: B4 chain with E18H, K107E
B18: MIC-1(R2A,N3E,R67E) (ligand)
chain: B4 chain with E18H, R67E

Biological target: T1, human MIC-1 receptor (hGFRAL, GDNF …)
Assay: cell-based or functional assay

Emax (%) | pERK EC50 (nM) | Binder
100% | 0.4 nM | B1
100% | 0.5 nM | B2
100% | 0.3 nM | B3
100% | 0.5 nM | B4
100% | 0.7 nM | B5
100% | 0.4 nM | B6
100% | 0.5 nM | B7
100% | 0.4 nM | B8
100% | 0.7 nM | B9
100% | 0.6 nM | B10
100% | 0.6 nM | B11
100% | 0.3 nM | B12
100% | 0.3 nM | B13
70% | 0.3 nM | B14
100% | 0.4 nM | B15
100% | 0.8 nM | B16
100% | 0.3 nM | B17
100% | 0.5 nM | B18

From US20180339057A1 (Novo Nordisk, published 2018)
